Molecular target: the molecule itself
Assay: dimer-sized band on SDS-PAGE Western blot; TMEM18 purified from insect cells, bound to DNA-cellulose, washed and eluted with 0.5 M, 1 M and 2 M salt; anti-Flag Western blot; dimer form approx. 34 kDa against monomer form approx. 17 kDa

B1: TMEM18 produced in insect cells (N-terminal Flag-tag followed by eight histidines) (natural protein)
chain: not shown
notes: TMEM18, 140 amino acids; cloned into pK509.3 vector; Flag-tag first, then eight histidine repeats, then TMEM18; detected by anti-Flag Western blot; also called histidine and Flag-tagged TMEM18; source: Sf9 or Tn5 insect cells (baculovirus), purified (nuclear extract in dodecyl maltoside, Ni-sepharose); not shown: Flag, N-terminal, kept
- binding result: binds
